# Numbering of substitutions follows the chain as printed.
# T1: TNF-beta (human, UniProt P01374 35-205)
# T1 construct: also called TNFβ; Tumour Necrosis Factor-beta
# T1 sequence (looked up): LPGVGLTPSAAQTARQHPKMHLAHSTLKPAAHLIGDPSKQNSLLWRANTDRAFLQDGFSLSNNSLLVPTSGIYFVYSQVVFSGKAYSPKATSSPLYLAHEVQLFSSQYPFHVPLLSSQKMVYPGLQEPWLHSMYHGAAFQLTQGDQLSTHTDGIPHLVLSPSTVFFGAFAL
# T2: Fas ligand (human, UniProt P48023 134-281, limits assumed)
# T2 sequence (looked up): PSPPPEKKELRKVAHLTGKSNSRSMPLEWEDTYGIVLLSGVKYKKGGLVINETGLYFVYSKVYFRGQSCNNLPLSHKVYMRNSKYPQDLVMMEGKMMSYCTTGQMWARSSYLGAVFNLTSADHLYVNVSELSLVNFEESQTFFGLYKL
# B1: I008C02 (scFv)
# scFv: AVQLQESGPGLVKPSETLSLTCSVSGASMTTNKFYWSWIRQPPGKGLEWIGNINYSKSTNYNPSLKSRITISVDTSKNQLSLKLNSVTAADTAVYYCARHVRDYDILTGYYRGHYFDYWGQGTMVTVSSGGGGSGGGGSGGGGSQSVLTQPASVSGSPGQSITISCTGTSSDVGGYNYVSWYQQHPGKAPKLMIYEGSKRPSGVSNRFSGSKSGNTASLTISGLQAEDEADYYCSSYTTRSTRVFGGGTKLTVLG
# B2: I006D07 (scFv)
# scFv: EVQLVESGGGVVQPGGSLRLSCAASGFTVNSYAMHWVRQAPGKGLQWVAVIPYDGSKKYYADSVKGRFTVSRDNSKNTLYLQMNSLRAEDTAVYYCARSHYDILTGLNYWYFDLWGRGTLVTVSSGGGGSGGGGSGGGGSSELTQDPAVSVALGQTVRITCQGDSLRSYYASWYQQKPGQAPVLVIYGKNNRPSGIPDRFSGSSSGNTASLTITGAQAEDEADYYCNSRGSSGNHVVFGGGTKLTVLG
# B3: I022E02 (scFv)
# scFv: QVQLVQSGAEVKKPGASVMVSCKASGYTFSTYAVHWVRQAPGQGLEWMGRINAGNGYTKYSQKFQGRVTITKDTSASAAYMELSSLGSEDTALYYCARATYDPLTGYSFDGLDIWGKGTMVTVSSGGGGSGGGGSGGGGSQSVLTQPASVSGSPGQSITISCTGTSSDVGGYNYVSWYQQHPGKAPKLMIYEGSKRPSGVSNRFSGSKSGNTASLTISGLQAEDEADYYCSSYTTRSTRVFGGGTKLTVLG
# B4: I029D07 (scFv)
# scFv: QVQLQQSGAEVKKPGSSVKVSCKASGYTFTKYTMHWVRQAPGQGPEWMGWINGGSGDTKYSRKFQGRVTITKDTSASAAYMELSSLGSEDTALYYCARATYDPLTGYSFDGFDIWGQGTLVTVSSGGGGSGGGGSGGGGSQSVLTQPASVSGSPGQSITISCTGTSSDVGGYNYVSWYQQHPGKAPKLMIYDVSKRPSGVPDRFSGSKSGNTASLTISGLQAEDEGDYYCSSYAGPSRVFGGGTKVEIKR
# B5: I017D10 (scFv)
# scFv: RVQLVQSGAEVKKPGASVKVSCKASGYTFTSDHISWVRQAPGQGLEWMGWISPHHGKTNYAQKLQGRVTMTTDTSTSTAYMELRSLRSDDTAVYYCARVQMDSEYYDLLTGINVGPYYFDYWGKGTLVTVSSGGGGSGGGGSGGGGSSELTQDPAVSVALGQTVRITCQGDSLRSYYASWYQQKPGQAPVLVIYGKNNRPSGIPDRFSGSSSGNTASLTITGAQAEDEADYYCNSRDSSGNHVVFGGGTKLTVLG
# B6: I008B01 (scFv)
# scFv: QVQLVQSGAEVMKPGASVKVSCKASGYNFNNYAMQWVRQAPGQRLEWMGWIVPGNGKTKYSQKFQDRVTIARDTSASTVYMELSSLTSEDTAMYYCARATYDPLTGYSFDGFDIWGQGTTVTVSSGGGGSGGGGSGGGGSQSVLTQPASVSGSPGQSITISCTGTSSDVGGYNYVSWYQQHPGKAPKLMIYEGSKRPSGVSNRFSGSKSGNTASLTISGLQAEDEADYYCSSYTTRSTRVFGGGTKLTVLG
# B7: I018C02 (scFv)
# scFv: QVQLQQSGSELKKPGASVIVSCKVSGYSLTKMSMHWVRQSPGEGLEWVGGIDPETRQPVYAQKFQGRVTITKDTSASAAYMELSSLGSEDTALYYCARATYDPLTGYSFDGFDIWGQGTLVTVSSGGGGSGGGGSGGGGSQSVLTQPASVSGSPGQSITISCTGTSSDVGGYNYVSWYQQHPGKAPKLMIYEGSKRPSGVSNRFSGSKSGNTASLTISGLQAEDEADYYCSSYTTRSTRVFGGGTKLTVLG
# B8: I061E07 (scFv)
# scFv: QVQLQQSGAEVKKTGASVKVSCKASGYIFADYYVHWVRQAAGQGLEWMGWINPNTGSTKYAQKFQDRVTMTRDTSIKTVYMELRRLRSDDTALYYCARATYDPLTGYSFDGFDIWGKGTMVTVSSGGGGSGGGGSGGGGSQSVLTQPPSASGTPGQRVTISCSGSSSNIGSNTVNWYQRLPGAAPQLLIYNNDQRPSGIPDRFSGSKSGTSGSLVISGLQSEDEADYYCASWDDSLNGRVFGGGTKLTVLG
# B9: I016E05 (scFv)
# scFv: QVQLQQSGAEVKKPGASVKVSCKASGYTFTKYTMHWVRQAPGQGPEWMGWINGGSGDTKYSRKFQGRVTITKDTSASAAYMELSSLGSEDTALYYCARATYDPLTGYSFDGFDIWGKGTMVTVSSGGGGSGGGGSGGGGSQSALTQPASVSGSPGQSITISCTGTSSDVGGYNYVSWYQQHPGKAPKLMIYEGSKRPSGVSNRFSGSKSGNTASLTISGLQAEDEADYYCSSYTTRSTRVFGGGTKLTVLG
# B10: I018H08 (scFv)
# scFv: B9 scFv with K19N, K117Q, A143V, V249I
# notes: also called 1018H08
# B11: I018H09 (scFv)
# scFv: B9 scFv with A79T, A143V
# B12: I001C09 (scFv)
# scFv: GVQLVQSGPEVKKPGASVKVSCTASGYTFTSYGVSWVRQAPGQGLEWIGWISAHNGQTKYAEKFQGRVTMTRNTSISTAYMELSSLRSEDTAVYYCARDGSYDILTGYYIDNYMDVWGKGTMVTVSSGGGGSGGGGSGGGGSSELTQDPAVSVALGQTVRITCQGDSLRSYYTNWFQQKPGQAPLLVVYAKNKRPSGIPDRFSGSSSGNTASLTITGAQAEDEADYYCHSRDSSGNHVLFGGGTKLTVLG
# B13: I018D07 (scFv)
# scFv: B12 scFv with K19I
# B14: I003F12S (scFv)
# scFv: QVQLLQSAAELKKPGQSLKISCKGSGFTFTTYWIGWVRQLPGKGLEWMGIIYPGDSHTTYSPSFEGHVNISVDKSINTAYLQWSSLKASDTAMYYCARHDDDVLTGYYFESWGQGTMVTVSSGGGGSGGGGSGGGGSQSVLTQPASVSGSPGQSITISCTGTSSDVGGYNYVSWYQQHPGKAPKLMIYEGSKRPSGVSNRFSGSKSGNTASLTISGLQAEDEADYYCSSYTTRSTRVFGGGTKLTVLG
# Target: T3, B Lymphocyte Stimulator, soluble form (human) (human, UniProt Q9Y275 134-285, biotinylated with NHS-biotin where used as biotinylated B Lymphocyte Stimulator)
# T3 construct: Coated on plastic, captured on streptavidin plates, amine-coupled to a CM5 chip or free in solution, depending on the assay; also called BLyS; immobilized B Lymphocyte Stimulator
# Test: phage competition ELISA
row,binding result,Binder
1,binds,B1
2,binds,B2
3,binds,B3
4,binds,B4
5,binds,B5
6,binds,B6
7,binds,B7
8,binds,B8
9,binds,B9
10,binds,B10
11,binds,B11
12,binds,B12
13,binds,B13

# Target: T4, membrane-bound B Lymphocyte Stimulator on U937 plasma membrane preparations (human, UniProt Q9Y275 1-285)
# T4 construct: Natural protein in plasma membrane fractions of the human cell line U937 coated on ELISA plates; also called U937 plasma membranes; U937 membranes
# Test: phage ELISA
row,binding result,Binder
1,binds,B1
2,binds,B2
3,binds,B3
4,binds,B4
5,binds,B5
6,binds,B6
7,binds,B7
8,binds,B8
9,binds,B9
10,binds,B10
11,binds,B11
12,binds,B12
13,binds,B13

# Target: T1, TNF-beta
# Test: phage ELISA
row,binding result,Binder
1,no binding,B1
2,no binding,B2
3,no binding,B3
4,no binding,B4
5,no binding,B5
6,no binding,B6
7,no binding,B7
8,no binding,B14
9,no binding,B8
10,no binding,B9
11,no binding,B10
12,no binding,B11
13,no binding,B12
14,no binding,B13

# Target: T5, TRAIL (human, UniProt P50591 114-281)
# T5 construct: also called TNF-related apoptosis inducing ligand
# Test: phage ELISA
# T5 sequence (P50591 114-281 limits assumed): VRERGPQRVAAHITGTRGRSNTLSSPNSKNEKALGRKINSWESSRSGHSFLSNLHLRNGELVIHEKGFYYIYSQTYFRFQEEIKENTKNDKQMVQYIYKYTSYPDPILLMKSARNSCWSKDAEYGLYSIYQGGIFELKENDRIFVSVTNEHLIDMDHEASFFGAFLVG
row,binding result,Binder
1,no binding,B1
2,no binding,B2
3,no binding,B3
4,no binding,B4
5,no binding,B5
6,no binding,B6
7,no binding,B7
8,no binding,B14
9,no binding,B8
10,no binding,B9
11,no binding,B10
12,no binding,B11
13,no binding,B12
14,no binding,B13

# Target: T2, Fas ligand
# Test: phage ELISA
row,binding result,Binder
1,no binding,B1
2,no binding,B2
3,no binding,B3
4,no binding,B4
5,no binding,B5
6,no binding,B6
7,no binding,B7
8,no binding,B14
9,no binding,B8
10,no binding,B9
11,no binding,B10
12,no binding,B11
13,no binding,B12
14,no binding,B13

# Target: T6, TNF-alpha (human, UniProt P01375 77-233)
# T6 construct: also called TNFα; TNF-α
# Test: phage ELISA
# T6 sequence (P01375 77-233 limits assumed): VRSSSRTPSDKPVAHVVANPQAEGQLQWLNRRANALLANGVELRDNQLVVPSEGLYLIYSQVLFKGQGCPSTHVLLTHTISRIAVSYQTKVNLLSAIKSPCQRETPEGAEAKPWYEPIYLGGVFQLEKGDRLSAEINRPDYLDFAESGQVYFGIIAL
row,binding result,Binder
1,no binding,B1
2,no binding,B2
3,no binding,B3
4,no binding,B4
5,no binding,B5
6,no binding,B6
7,no binding,B7
8,no binding,B14
9,no binding,B8
10,no binding,B9
11,no binding,B10
12,no binding,B11

# Source: patent US20110293610A1 (published 2011)
